This note sets out measurements from the DeepSol protein solubility set.

This data set can be described thus: soluble on expression in E. coli; label from the status in PepcDB or PDB records.
Consider “MGSDKIHHHHHHMTTTPLPTFSDDQAQAHDRIAEVLRDMGVDIDDDTLVPAKDTKSAVLAVTGKAGSGKTLLLAELVKALERTGVEIVSGDWEGKRRKDRRTVAVLAPTNKAASVLRNRGVPATTIHRILYTPMYDPEFEKVAEWLAGQGERPSIEALTDAAMDRAKEVYETTKSVPAALASAGLRGSDFITGWKRREDGLDIGLVDESSMLDDKQFQDLKEIFPTLVLFGDPAQLAPVGQSGEMIFDRFKGDNLLHLGRVHRQDADNPILDLAHALGDPQLEFRDFEQMIEDAAARDDRVVVSPRANSDMMARSPVLVWRNATRIRLIAAFRAAFGAGDDEILPGEPLICDGIELPLKHRKKRIDLEARGLIKGAPVVYLGPGNKPGFSRLHVMGAETPRFSAASIVKIEKPGEEEPFLPYAARMGAAFLHGAAVTMHKAQGSQWPEVQVFSPDLYAASRAGRMEAGQALWKRLAYVAITRAEERLFWVTRYMLSRPVHDLSTDDLTVKAAPLELEAEEDADTSTM”, for which the “soluble on expression in E. coli” value is reported as “not soluble”.

In the case of “MGSDKIHHHHHHAGFIFLPKENETASTTVEEVKWLTYDQAVALSKKNPKPIFIDVYTDWCGWCKTMDKNTFSNHKVAAYLNKRFYSVKLNPEKKDTVHYKGVAMTNGALAGKIFHATSYPTTVYLEGDETLLQPIPGYQAPNDLYRIIHYIGENHYKTTTWDDFSKSFNESAE”, the “soluble on expression in E. coli” value is recorded as “not soluble”.

In the case of “MAQSFLLMGALIQHHLKGEKADLLTPEKLLEAANKQGTVPSRVRYQWMEDEETGRLKAVGYHTSMESGRDQVRVRLLKHDFPNNRYEFWEEGATGPTILWTPDNPGIELPTDTAHGEQPVIPSAIPGLEIPEMDDVSILATPMPDEKDFRDYILVFPENAFPPIYVYLSKKIDTPIWLEHHHHHH”, the “soluble on expression in E. coli” value is “soluble”.

“DLTAIIGLEVHVQLETDTKIFCGCSTDTDDADPNTHTCPVCLGLPGALPTLNEGAVEAAVKLGKAIDADIPERTRFHRKNYFYPDLPKGFQITQYDAPICQDGELEVGTADDRRAIGIERAHLEEDPGSLQHVGGSIEDADYTLVDYNRAGTPLMEIVTRPDFRAAEEVRSFLAKLTSVLEYLGVFDAERDGSLRVDANISMVDSAELAGEGGPSDDVLEAANRTEVKNISSHRAAQKALAYETTRQRNQLER”: the “soluble on expression in E. coli” value is reported as “not soluble”.

For “MPPKKNVVEEKPALIGRLGTNLKVGILGLPNVGKSTFFNVLTKSEAQAENFPFCTIDPNESRVAVQDDRFDWLVNHYKPASKVPAFLNVTDIAGLVKGASEGQGLGNAFLSHVSACDALFHLCRAFDDDDVTHVEGEVDPVRDLEIISNELFAKDLQFIDGPLDKVEKLFTRANDKTKKIEYDTLVRVKKCLEEKKPVRQELWNEKEIEILNKHLFLTAKPIVYLVNLSEKDYIRKKNKWLPKIKAWIDTNDAGAVLIPFSGAFELKLLDMPEDERQKYLKEQGVTSNLDKIVHTGYKALQLEYFFTSGEDEVKAWTIQVGTPAPKAAGRIHTDFEKGFIMAEVMKVADLIELGDEAKCKAGGKYRQQGKTYIVQDGDVIFFKFNAGAGLQAKKK”, the “soluble on expression in E. coli” value is on record as “not soluble”.

Consider “GPGSMTSPKIKAVFVDMDGTLFNSDHLISPRTAKVIHALEERGVAFVVATGRPFPDVFGNLAQTELRPDFIITSNGARVHDAQHNILFACDMDAESVCRLFQLSPHLSEDGVVDPSVQARRILCNVNCRDRWLTNECIPEVRAAFHPSFIYERVDPMVQTAKTLEGTHSMWIRGAHADLVCVQKYVDRELSGEIRCAFALPHILDCFRKDVNKGAAMEKVCKHLRIDLRETIAFGDGMNDIRMLTAAGQGFVMANAAEMVKQAAPELPVIQSNNEEGVAWKLEELLAADAFVG”, for which the “soluble on expression in E. coli” value is given as “soluble”.

For the sequence “MGHHHHHHSHMPVIQTESEHKPPVNGSYFAHVNPADGGCLLEKYSEKCHDFQCALLANLFASEGQPGKVIEVKAKRRTGPLNFVTCMRETLEKHYGNKPIGMGGTFIIQKGKVKSHIMPAEFSSCPLNSDEEVNKWLHFYEMKAPLVCLPVFVSRDPGFDLRLEHTHFFSRHGEGGHYHYDTTPDIVEYLGYFLPAEFLYRIGQPKETHSIGRD”, the “soluble on expression in E. coli” value was “not soluble”.

As for “MAHHHHHHMFANLDEEKKARLRERILQAAAAPPPAATPARSNSDSDGEQEVPPQHTESTKHASEQLAINAQSTDIDIANIRLFTLDELDLNQLTECKTLSLRKNLIHELSAFPQHLAGRLVELDLFDNKIRKVRDFFDSAMVPDPESGSLSKKAVPHAFYSLTKLDLSYNQLRKITGLDSLGSTLKELYLVENKIKVIEGLDSFVHLELLELGGNRIREIGSGLSNLRSLQSLWLGKNKIHSIGDSLHNLRELRKLSLQANRLTSITAEAFKEGCNPYLAELYLSENGISTIENLPLHSLHLLDFSFNPISTINEAVINPTNMPELEEFWLTDGSISDWGEVKKFCGFANTLRTIYVERNPIEQDKRYRDKVYMNLPFVTQIDSWPVVNKDNLEGDRLIQRRAS”, the “soluble on expression in E. coli” value is listed as “not soluble”.

As for “VSEIKTLVTFFGGTGDLAKRKLYPSVFNLYKKGYLQKHFAIVGTARQALNDDEFKQLVRDSIKDFTDDQAQAEAFIEHFSYRAHDVTDAASYAVLKEAIEEAADKFDIDGNRIFYMSVAPRFFGTIAKYLKSEGLLADTGYNRLMIEKPFGTSYDTAAELQNDLENAFDDNQLFRIDHYLGKEMVQNIAALRFGNPIFDAAWNKDYIKNVQVTLCEVLGVEERAGYYDTAGALLDMIQNHTMQIVGWLAMEKPESFTDKDIRAAKNAAFNALKIYDEAEVNKYFVRAQYGAGDSADFKPYLEELDVPADSKNNTFIAGELQFDLPRWEGVPFYVRSGKRLAAKQTRVDIVFKAGTFNFGSEQEAQEAVLSIIIDPKGAIELKLNAKSVEDAFNTRTIDLGWTVSDEDKKNTPEPYERMIHDTMNGDGSNFADWNGVSIAWKFVDAISAVYTADKAPLETYKSGSMGPEASDKLLAANGDAWVFKG”, the “soluble on expression in E. coli” value is listed as “soluble”.

On to “MGSDKIHHHHHHMTWRIVHIHQSEKMRLKLDNLVIKKQGDEFTIPLSDISIIVAEGGDTVVTLRLLSALSKYNIALIVCDNHHLPTGIYHSQNGHFRAYKKLQAQLSWAPLQKDKLWQIIIYFKITNQQDVLAMQEKSLSTIQLLSDYREHIELGDRTNREGHAAKVYFNELFGKQFVRLTQQETDAVNAGLNYGYTIFRAQMARIIAGYGLNALIGIFHKNEYNQFNLADDLMEPFRQIVDVWVYMNLREADFLTYQHRLELTNLLNAKIRYGKENCSVTVAMDKFVKGFIRCIEDKDTNQFFCPVVSSLEMEKL”, for which the “soluble on expression in E. coli” value is listed as “not soluble”.

Consider “GPGSMLGSPSDPPPRDAAGDAAAPVSAASSPSAALPVAAVYSTGSQALQAELHQLRERLRVSDEWNMRLQLQLQELLQLPQNEVQDMRQRMQDPDIAIPLLQCYDAVIHEKTEEVERLRREAVDLQTQLDAFRKDQLDVSNAVRMAEELAKSVQGKAAAEVQRYLEAVRELQEELVRLRIEVTRALDAENIAKQDALRIAERAASLETALEAAKQATSKAEAAREAAERKWTIQEQQAEEQEMGAVVQKAQLQRITQENADKAQELERLRAKMTHALRQASDNHAAHLRIVEERHRMIVEDLRSVNRTQELEVLKLRAQLARCDMTNPSGAGRGTGASSASTSSLRLQSTAELLEAQTRQAQEMELKRLHGEVSALQLQRDDAVRQCEQRTSRLQRDFDQQLQDAQRQLQSAQRSFSEARSRCEELEETKAAQEASLRKARDELRQAQQGGQQYRLSADSSARKLASAQQQLAEASKRFSTLQEEKQSAVRQAHERVSELEANVAQALQEVQSAKERAYAEVEEVQRRYEQLRLQNSKLQDDLREREAALVKKERERSILVAQIGRLEDGLEAHKRQMMESDRRVQQLEQQLIAMRQQQREGFLSLEQVKLQNAQLTRTRDQLAEMLQARSL”, for which the “soluble on expression in E. coli” value is on record as “not soluble”.

“MGSDKIHHHHHHMVRIALDPTPFHHDYDLLDFPDVTARLGYEYMQLTPHVDFGPFFRHPKADDDLVAALKKRAKDAGVTIPALLPVQRISWPEETQRVAAVRNIKRIIQLAVDLEVDTLNTEFSGRPERSEDSEDAFYRSMEELLPILEKEGIKFNIDPHPDDFVENGIEAWRVIRGLNSKQVGFVYVAPHSFHMGDQAEAILPAVGDRLGAVYLSDTFDHHKSHGLRYITNPPGNAVRVHQHLKIGDGDVNFEEIFSLLRSTGYLDREDALLVSNVFAEDEAADEVSRYQLEKIRSLIENA”: the “soluble on expression in E. coli” value was “not soluble”.

On to “MKLEVLPLDQKTFSAYGDVIETQEREFFHINNGLVERYHDLAKVEVLEQDRTLISINRAQPAAMPIVVHELERHPLGTQAFVPMNGEAFVVIVALGDDKPDLSTLRAFISNGRQGVNYHRNVWHHPLFAWQTVTDFLTVDRGGSDNCDVESIPTHELCFALEHHHHHH”, for which the “soluble on expression in E. coli” value is listed as “soluble”.

With “MGSDKIHHHHHHMLLKNASFYDDEVLKRADIRLKDSLITEIKENLSPINNEEVIECRDLFVLPSFIDLSVTGLEGYENLKQKAFKGGVGLLNVFNCDQSGIKNIMAIKNNQLADIATLKNKGGEILIAPSDAFLELISHYAKSYNLPLLISLENSFEALNSGELAYELGQNFVENAFENTRLVRFMEVSRALQIPVLLDKVNSITTLKLIKAFNDLGAKLQAQTPLSHLVLDESVYEDYEPRFKIAPPLRDKESQNALKEALKNNEIAMLTSLHASKNSNAQLFEESAFGCESIEDAFSVAYTFLVQKKVISFQQLIKVMAINQAKFLKLNAGEVKENQLANLMIVDLNAQTRVSNQNSPFYGLELYGEVQRMILKGQTTFIKENACKKS”, the “soluble on expression in E. coli” value was “not soluble”.

Regarding “MGSDKIHHHHHHMLTRMMQATAAIQQSVDGYFAVPTSLLVPDARGGFSIYLKQERGFVLYAKEDEAFTMRHRMQLRAHGVTQVFVPAPQHPSFISHRERHFGRVLSDDSLPLPERARLFYETSTEIVKEVFEKKLPRTLKRETFDRILALVSEGISFLTLENSLKTVASLVAHDYHTYSHSLHVFVYSQALLQSYGFDEDSLVQFGLGAMLHDIGKTFLDAAILTKPAALTPDEREEVNRHPVFGVGACARMPLSQDAINCILFHHEKLDGSGYPCGLRGDEIPLPVRAITIADIYDALTSNRAYAPARNAFQVLRIMSSEMRDQLDLDMFRRFVLMLSGANVL”, the “soluble on expression in E. coli” value was “not soluble”.

As for “MIDVKSIILIVLDGLGDRPGEILGYRTPLQAAYHPNMNRMASLGMTGLMHPISPGIRSGSDTSHMSLLGYDPRVYYQGRGPFEALGLHMDMKPGDLAFRANFATNRDGKIIDRRAGRINAGNDQLASAISIDIGNYKFRVKSGVEHRAALVVSGPNLSDKISDSDPHSEGKPPEPIRPLDPSADSTAKIMNEYLKRIREILRDHPVNVEREKNGQIPGNELLIRSAGKVPDIPSFQEKNGITGACVVGSPWLKGLCRLLGMAVIDVPGAAGTINSNYTGKIKTAIDASKRYDFVLVNIKATDVAGHDGDYELKRRVIEDIDIAMEPLLGQSDRIVVAITGDHSTPCSVKDHSGDPVPIVFYTDGIYSDDVKLFDEVSAMKGALRITTQDVLNILMEMAGRAEKFGSLEHHHHHH”, the “soluble on expression in E. coli” value is “soluble”.

For the sequence “MKVIEFHQVSKWYGQFQALKSISLTVNKGEIVVICGPSGSGKSTLIRTVNGLESIDSGEIIVLPELDERTRRSGKIGMVFQHFNLFPHLTVLENLTLAPIRTLKLSAQEAKERAYHFLQRVKITDQTHKYPIQLSGGQQQRVAIARSLCMQPEILLFDEPTSALDPETINEVLEVMVDLAQDGITMMCVTHEMGFARKVAHRVMFMDEGEILEVGSPEQLFQNPTHPRTQQFLNQILSH”, the “soluble on expression in E. coli” value is on record as “not soluble”.

Take “MSTPRIEHYTTDVHAHWEGIHPQDWAEVDLIGYENAMDKMYRTLCENPDAALVQVGHRSKLLNDHGSDYRFNGKFTSEQTKPERSHHDYNHFGKLMKWEGDRWYKYDFEVEVTDHTRSE”: the “soluble on expression in E. coli” value is recorded as “not soluble”.
